The source of these data is patent US20110014209A1 (MACFARLANE BURNET INSTITUTE FOR MEDICAL RESEARCH AND PUBLIC …, published 2011).

Where a chain is given by its changes, count along the chain named. Numbers in names are those of the source.

The labels stand for the following.
T1: CD81 MBP-LEL (maltose-binding protein fused to the CD81 large extracellular loop, residues 113-201) (human, UniProt P60033 113-201)
T1 construct: range 113-201
T1 sequence: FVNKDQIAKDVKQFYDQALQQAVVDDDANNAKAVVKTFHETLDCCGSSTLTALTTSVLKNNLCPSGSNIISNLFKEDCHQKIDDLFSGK

B1: E2Δ2-his mature protein (other)
chain: ETHVTGGNAGRTTAGLVGLLTPGAKQNIQLINTNGSWHINSTALNCNESLNTGWLAGLFYQHKFNSSGCPERLASCGSSGCWHYPPRPCGIVPAKSVCGPVYCFTPSPVVVGTTDRSGAPTYSWGANDTDVFVLNNTRPPLGNWFGCTWMNSTGFTKVCGAPPCVIGGVGNNTLLCPTDCFRKHPEATYSRCGSGPWITPRCMVDYPYRLWHYPCTINYTIFKVRMYVGGVEHRLEAACNWTRGERCDLEDRDRSEHHHHHH
B2: CD81 MBP-LEL containing the F186S mutation (receptor)
chain: T1 sequence with F74S
B3: E2Δ3-his mature protein (other)
chain: ETHVTGGNAGRTTAGLVGLLTPGAKQNIQLINTNGSWHINSTALNCNESLNTGWLAGLFYQHKFNSSGCPERLASCRRLTDFAQGWGPISYANGSGLDERPYCWHYPPRPCGIVPAKSVCGPVYCFTPSPVVVGTTDRSGAPTYSWGANDTDVFVLNNTRPPLGNWFGCTWMNSTGFTKVCGAPPCGSSGCPTDCFRKHPEATYSRCGSGPWITPRCMVDYPYRLWHYPCTINYTIFKVRMYVGGVEHRLEAACNWTRGERCDLEDRDRSEHHHHHH
B4: E2Δ23-his mature protein (other)
chain: ETHVTGGNAGRTTAGLVGLLTPGAKQNIQLINTNGSWHINSTALNCNESLNTGWLAGLFYQHKFNSSGCPERLASCGSSGCWHYPPRPCGIVPAKSVCGPVYCFTPSPVVVGTTDRSGAPTYSWGANDTDVFVLNNTRPPLGNWFGCTWMNSTGFTKVCGAPPCGSSGCPTDCFRKHPEATYSRCGSGPWITPRCMVDYPYRLWHYPCTINYTIFKVRMYVGGVEHRLEAACNWTRGERCDLEDRDRSEHHHHHH
B5: E2-his mature protein (wild type, residues 384-661, strain H77c) (other)
chain: ETHVTGGNAGRTTAGLVGLLTPGAKQNIQLINTNGSWHINSTALNCNESLNTGWLAGLFYQHKFNSSGCPERLASCRRLTDFAQGWGPISYANGSGLDERPYCWHYPPRPCGIVPAKSVCGPVYCFTPSPVVVGTTDRSGAPTYSWGANDTDVFVLNNTRPPLGNWFGCTWMNSTGFTKVCGAPPCVIGGVGNNTLLCPTDCFRKHPEATYSRCGSGPWITPRCMVDYPYRLWHYPCTINYTIFKVRMYVGGVEHRLEAACNWTRGERCDLEDRDRSEHHHHHH
B6: E2 glycoprotein expressed from pE1E2 Δ23 (HVR2 and igVR deletions) (other)
chain: ETHVTGGNAGRTTAGLVGLLTPGAKQNIQLINTNGSWHINSTALNCNESLNTGWLAGLFYQHKFNSSGCPERLASCGSSGCWHYPPRPCGIVPAKSVCGPVYCFTPSPVVVGTTDRSGAPTYSWGANDTDVFVLNNTRPPLGNWFGCTWMNSTGFTKVCGAPPCGSSGCPTDCFRKHPEATYSRCGSGPWITPRCMVDYPYRLWHYPCTINYTIFKVRMYVGGVEHRLEAACNWTRGERCDLEDRDRSELSPLLLSTTQWQVLPCSFTTLPALSTGLIHLHQNIVDVQYLYGVGSSIASWAIKWEYVVLLFLLLADARVCSCLWMMLLISQAEA
notes: also called HVR2+igVR

The target of experiment [1] is B2. The experiment in a line: MBP-LEL ELISA, H53 detection.
Another experiment addresses E2Δ12-his mature protein (hepatitis C virus H77c, UniProt P27958 409-661). The experiment in a line: MBP-LEL ELISA, H53 detection. (An ELISA detects its analyte on a solid surface through an enzyme-linked reagent.)
Experiment [2] has as its target T1, CD81 MBP-LEL (maltose-binding protein …). In words: CD81 MBP-LEL ELISA, purified E2-his proteins, H53 detection.
Experiment [3] has the same target. In words: CD81 MBP-LEL solid-phase assay, intracellular E2.

Turning to B1, in experiment [1], the binding result is “no binding”.
On to B2, for which, in the experiment with E2Δ12-his mature protein, the binding result was “no binding”.
Take B3: the binding result is given as “no binding” in experiment [1] and “binds” in experiment [2].
As to B4, the binding result in experiment [1] was “no binding”; in experiment [2], “binds”.
Consider B5, for which the binding result in experiment [1] is “no binding”; in experiment [2] it was “binds”.
Consider B6, for which the binding result in experiment [3] is “binds”.
